Measurements: patent publication US10835608B2, “Polymer-carbohydrate conjugates for drug delivery technology” (priority 2013, dated 2020)

Assay: Solubility study of voriconazole: minimum polymer to drug ratio required to solubilize voriconazole
Details: 1% (w/v) voriconazole in saline based solution
Experimental: 1% (w/v) of voricazole was prepared in a saline based solution with different PEG-carbohydrate conjugates.

Substance	Polymer concentration needed to solubilize voriconazole, comparison in words	Solubilizing Voriconazole (min. polymer to drug ratio)
N,N,N-oleoyl-lactobionoyl-mPEG(12)propanediamine	much high concentration	20

Assay: Solubility study of propofol: minimum conjugate concentration required to solubilize propofol
Format: physicochemical
Details: 1% (w/v) propofol in saline based solution
Text: Table 15 listed the minimum concentration of the conjugates required to solubilize propofol as a solubility test reference.

Substance	Concentration (minimum concentration of the conjugate required to solubilize propofol) [% w/v]	Conjugate concentration needed to solubilize propofol, comparison in words
Cholecalciferol-diethylene-triamineisomal-totriose-mPEG11	2.2	–
Cholesterypropanediamineascorbate-mPEG11	4.6	–
Cholesterypropanediaminegluconate-mPEG11	5.3	much high conjugate concentration was required
Cholesterypropanediamineisomaltotriose-mPEG11	2.0	–
Cholesterypropanediaminelactobionate-mPEG11	3.2	–
Cholesterytriethylenetetraminelactobionate-di-mPEG11	1.6	–
Retinoylpropanediaminelactobionate-mPEG11	2.9	–
Tocopherylpropanediaminelactobionate-mPEG11	3.3	the lowest molar concentration
